Experimental data as given in patent US20130071921A1 (Pfizer, published 2013).

What was measured:
[1] = target: T1, Recombinant human Dkk-1 (R&D Systems cat no. 1096-DK/CF), 10xHis tag at the C terminal (human, UniProt O94907 32-266); assay: method not given
T1 construct: the actual N-terminus of the purified protein is marked in bold italic after residue 30, but the mark is an image lost in the text; also called rhuDkk-1; hDkk-1
T1 sequence: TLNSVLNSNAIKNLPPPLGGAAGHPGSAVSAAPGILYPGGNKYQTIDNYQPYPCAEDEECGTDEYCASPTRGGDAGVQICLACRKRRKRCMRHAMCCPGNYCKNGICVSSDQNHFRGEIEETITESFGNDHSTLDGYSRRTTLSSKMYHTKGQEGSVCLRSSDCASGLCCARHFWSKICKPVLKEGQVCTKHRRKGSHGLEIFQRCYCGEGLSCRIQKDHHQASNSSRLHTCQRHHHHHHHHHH

[2] = target: T2, recombinant mouse Dkk-1 (R&D systems Cat No. 1765-DK/CF) (mouse, UniProt O54908 32-272); assay: method not given
T2 construct: Bought
T2 sequence (looked up): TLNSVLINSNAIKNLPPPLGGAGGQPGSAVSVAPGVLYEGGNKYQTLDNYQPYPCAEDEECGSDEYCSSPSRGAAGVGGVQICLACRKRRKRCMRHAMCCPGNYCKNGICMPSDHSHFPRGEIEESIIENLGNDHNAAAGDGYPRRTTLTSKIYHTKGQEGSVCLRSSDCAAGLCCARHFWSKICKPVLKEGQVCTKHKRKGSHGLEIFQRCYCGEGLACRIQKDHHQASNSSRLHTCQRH

Cynomolgous monkey Dkk-1 [3] = target: T3, Cynomolgous monkey Dkk-1 (cynomolgous monkey); assay: TMDD PK/PD model fit to monkey serum data in vivo; derived as Koff/Kon
[4] = target: T4, recombinant rat Dkk-1 (R&D systems Cat No. 4010-DK/CF) (rat); assay: TMDD PK/PD model fit to rat serum data in vivo; derived as Koff/Kon
T4 construct: Bought

[5] = target: T1, Recombinant human Dkk-1 (R&D Systems …); assay: SPR (Table 4, headed 37C, BIAcore or ProteOn); 37 C per caption of Table 4
[6] = target: T4, recombinant rat Dkk-1 (R&D systems Cat …); assay: SPR BIAcore 3000, CM5 chip (Table 8)
[7] = target: T1, Recombinant human Dkk-1 (R&D Systems …); assay: SPR BIAcore 3000, CM5 chip (Table 8)
Cynomolgous monkey Dkk-1 [8] = target: T3, Cynomolgous monkey Dkk-1; assay: SPR BIAcore 3000, CM5 chip (Table 8)
[9] = target: T2, recombinant mouse Dkk-1 (R&D systems …); assay: SPR BIAcore 3000, CM5 chip (Table 8)
[10] = target: T1, Recombinant human Dkk-1 (R&D Systems …); assay: cell-based or functional assay
[11] = target: T4, recombinant rat Dkk-1 (R&D systems Cat …); assay: SPR BIAcore, huMabJC18 captured by goat Fab2 anti-human Fc, rat Dkk-1 injected
Procedure: (§1) For the interaction analyses of huMabJC18 with mouse or rat Dkk-1, low-levels of huMabJC18 (typically, 100-400 response units) were captured on individual flow cells by goat Fab2 anti-human Fc, which was pre-immobilized to the CM5 chip surface. A goat Fab2 anti-human Fc-saturated flow cell containing no humanized antibody served as reference channel. Mouse or rat Dkk-1 (R&D Systems) was titrated over the chip using 70.1 nM or 30.2 nM as top concentration, respectively, of a three-fold dilution series Association and dissociation phases were monitored at 100 μL/min for 90 seconds and 30 minutes, respectively. Capture surfaces for all experiments were regenerated with two 30 second pulses of […] H₃PO₄, except for the amine-coupled huMabJC18 surface used in the human Dkk-1 experiment, which was not regenerated.

[12] = target: T5, recombinant human Dkk3 (R&D systems Cat No. 1118-DK/CF) (human, UniProt Q9UBP4 22-350); assay: SPR BIAcore, huMabJC18 captured by goat Fab2 anti-human Fc
T5 construct: Bought; also called hDkk-3
T5 sequence (Q9UBP4 22-350 limits assumed): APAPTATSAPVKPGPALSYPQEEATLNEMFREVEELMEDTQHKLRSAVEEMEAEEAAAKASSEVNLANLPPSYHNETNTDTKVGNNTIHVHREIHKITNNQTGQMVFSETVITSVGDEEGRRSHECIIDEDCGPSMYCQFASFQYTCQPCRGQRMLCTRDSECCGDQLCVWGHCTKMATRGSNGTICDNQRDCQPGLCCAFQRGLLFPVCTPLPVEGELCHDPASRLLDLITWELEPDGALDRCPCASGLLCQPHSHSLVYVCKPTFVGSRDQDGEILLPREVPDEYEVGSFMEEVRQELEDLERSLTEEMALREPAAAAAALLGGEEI

[13] = target: T2, recombinant mouse Dkk-1 (R&D systems …); assay: SPR BIAcore, huMabJC18 captured by goat Fab2 anti-human Fc, mouse Dkk-1 injected
Procedure: as §1

B1: huMabJC18, fully humanized anti-Dkk-1 monoclonal antibody (antibody, human IgG2, kappa, V domains shown)
VH: EVQLVESGGGLVQPGGSLRLSCAASGFTFSSYAISWVRQAPGKGLEWVASVSGTGLGFQTYYPDSVKGRFTISRDNAKNSLYLQMNSLRAEDTAVYYCATSLENYAFDYWGQGTTVTVSS
VL: EIVLTQSPATLSLSPGERATLSCRASESVDDFGISFINWYQQKPGQAPRLLIYAGSKQGSGIPARFSGSGSGTDFTLTISSLEPEDFAVYYCQQLKEVPPTFGGGTKVEIKR
notes: IgG2(delta a: A329S, P330S), kappa; also called huMabJC18 IgG
- fold increase in affinity against the parent mouse antibody JC18 [1]: > 100 fold
- fold increase in affinity against the parent mouse antibody JC18 [2]: > 100 fold
- Kd (Cynomolgous monkey Dkk-1 [3]): 0.0513 nM
- Kd [4]: 0.0348 nM
- kon [5]: > 1.36e+06 M⁻¹ s⁻¹
- Kd [6]: < 0.1 nM
- T1/2 [6]: 0.92 h
- koff [6]: 0.00021 s⁻¹
- kon [6]: > 1.3e+06 M⁻¹ s⁻¹
- Kd [7]: < 0.002 nM
- T1/2 [7]: > 96.3 h
- koff [7]: < 2e-06 s⁻¹
- kon [7]: > 1.3e+06 M⁻¹ s⁻¹
- T1/2 (Cynomolgous monkey Dkk-1 [8]): > 5 h
- koff (Cynomolgous monkey Dkk-1 [8]): < 6e-05 s⁻¹
- Kd [9]: < 0.03 nM
- T1/2 [9]: > 4.94 h
- koff [9]: < 3.9e-05 s⁻¹
- kon [9]: > 1.3e+06 M⁻¹ s⁻¹
- IC50 in a Cell-based Functional Assay (U2OS TOPFlash luciferase; reversal of Dkk-1 inhibition of Wnt3a signaling) [10]: 1.3 nM
- Kd [11]: < 0.1 nM
- T1/2 [11]: 0.92 h
- koff [11]: 0.00021 s⁻¹
- kon [11]: > 1.3e+06 M⁻¹ s⁻¹
- binding result [12]: no binding
- Kd [13]: < 0.03 nM
- T1/2 [13]: > 4.94 h
- koff [13]: < 3.9e-05 s⁻¹
- kon [13]: > 1.3e+06 M⁻¹ s⁻¹
